Values of other authors, collected in article PMC7527559.
Like-named read-outs stand apart in the source and are kept apart here.

Experiments:
[1] = biological target: RNA polymerase (Escherichia coli) (UniProt P0A7Z4)
[2] = biological target: RNA polymerase (Escherichia coli) (UniProt P0A7Z4); remark: listed apart in the source

Chain of DksA (P0ABS1 whole entry): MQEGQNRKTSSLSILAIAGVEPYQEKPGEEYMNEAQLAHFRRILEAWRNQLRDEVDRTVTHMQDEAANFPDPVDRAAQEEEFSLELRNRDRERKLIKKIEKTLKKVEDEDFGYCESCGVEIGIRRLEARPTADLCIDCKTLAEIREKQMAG
Chain of GreA (P0A6W5 whole entry): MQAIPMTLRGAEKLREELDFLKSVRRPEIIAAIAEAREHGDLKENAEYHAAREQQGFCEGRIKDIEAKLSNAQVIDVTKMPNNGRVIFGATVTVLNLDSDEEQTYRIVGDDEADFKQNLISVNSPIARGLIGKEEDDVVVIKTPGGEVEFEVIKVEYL

Kd [1] [nM] | Kd [2] [nM] | Substance
800 |  | GreA (from UniProt P0A6W5)
 | 100 | DksA (from UniProt P0ABS1)
